Experimental data taken from PMC7884259 (Journal of medicinal chemistry, 2020).
Where a chain is given by its changes, count along the chain named. Each block holds one binder with its values, some of them ahead of it. Where no end group is shown, it is not given here.

Tests used:
[1] = biological target: T1, ATAD2B bromodomain (residues 953–1085) (human, UniProt Q9ULI0 953-1085); experiment: ITC
T1 sequence (looked up): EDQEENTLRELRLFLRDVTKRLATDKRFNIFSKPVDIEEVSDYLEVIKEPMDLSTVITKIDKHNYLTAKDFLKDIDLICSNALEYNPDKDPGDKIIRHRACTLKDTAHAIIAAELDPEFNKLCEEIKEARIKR

[2] = biological target: T2, ATAD2B bromodomain N1038A (human, UniProt Q9ULI0 953-1085, N1038A); experiment: ITC
T2 sequence (looked up): T1 sequence (looked up) with N86A

Kd [1]: 28.1 µM | Kd [2]: 623 µM
B1: H4K5acK8ac (res 1–10) (peptide)
peptide: SGRGK(Ac)GGK(Ac)GL-NH2

Kd [1]: 48 µM
B2: H4K5ac (res 1–10) (peptide)
peptide: SGRGK(Ac)GGKGL-NH2

Kd [1]: 1160 µM
B3: H4K8ac (res 1–10) (peptide)
peptide: SGRGKGGK(Ac)GL-NH2

Kd [1]: 42.5 µM
B4: H2AK5ac (res 1–12) (peptide)
peptide: SGRGK(Ac)QGGKARA-NH2
